Experimental data as given in patent US20140274782A1, “AFFINITY REAGENTS AND METHODS FOR DETECTION, PURIFICATION, AND PROTEOMIC ANALYSIS OF METHYLATED PROTEINS” (The Board of Trustees of the Leland Stanford Junior …, priority 2013, published 2014).

B1: HNRNPL (protein, UniProt P14866 1-589, looked up)
Heterogeneous nuclear …: MSRRLLPRAEKRRRRLEQRQQPDEQRRRSGAMVKMAAAGGGGGGGRYYGGGSEGGRAPKRLKTDNAGDQHGGGGGGGGGAGAAGGGGGGENYDDPHKTPASPVVHIRGLIDGVVEADLVEALQEFGPISYVVVMPKKRQALVEFEDVLGACNAVNYAADNQIYIAGHPAFVNYSTSQKISRPGDSDDSRSVNSVLLFTILNPIYSITTDVLYTICNPCGPVQRIVIFRKNGVQAMVEFDSVQSAQRAKASLNGADIYSGCCTLKIEYAKPTRLNVFKNDQDTWDYTNPNLSGQGDPGSNPNKRQRQPPLLGDHPAEYGGPHGGYHSHYHDEGYGPPPPHYEGRRMGPPVGGHRRGPSRYGPQYGHPPPPPPPPEYGPHADSPVLMVYGLDQSKMNCDRVFNVFCLYGNVEKVKFMKSKPGAAMVEMADGYAVDRAITHLNNNFMFGQKLNVCVSKQPAIMPGQSYGLEDGSCSYKDFSESRNNRFSTPEQAAKNRIQHPSNVLHFFNAPLEVTEENFFEICDELGVKRPSSVKVFSGKSERSSSGLLEWESKSDALETLGFLNHYQMKNPNGPYPYTLKLCFSTAQHAS
B2: WDR70 (protein, UniProt Q9NW82 1-654, looked up)
WD repeat-containing protein …: MERSGPSEVTGSDASGPDPQLAVTMGFTGFGKKARTFDLEAMFEQTRRTAVERSRKTLEAREKEEEMNREKELRRQNEDIEPTSSRSNVVRDCSKSSSRDTSSSESEQSSDSSDDELIGPPLPPKMVGKPVNFMEEDILGPLPPPLNEEEEEAEEEEEEEEEEENPVHKIPDSHEITLKHGTKTVSALGLDPSGARLVTGGYDYDVKFWDFAGMDASFKAFRSLQPCECHQIKSLQYSNTGDMILVVSGSSQAKVIDRDGFEVMECIKGDQYIVDMANTKGHTAMLHTGSWHPKIKGEFMTCSNDATVRTWEVENPKKQKSVFKPRTMQGKKVIPTTCTYSRDGNLIAAACQNGSIQIWDRNLTVHPKFHYKQAHDSGTDTSCVTFSYDGNVLASRGGDDSLKLWDIRQFNKPLFSASGLPTMFPMTDCCFSPDDKLIVTGTSIQRGCGSGKLVFFERRTFQRVYEIDITDASVVRCLWHPKLNQIMVGTGNGLAKVYYDPNKSQRGAKLCVVKTQRKAKQAETLTQDYIITPHALPMFREPRQRSTRKQLEKDRLDPLKSHKPEPPVAGPGRGGRVGTHGGTLSSYIVKNIALDKTDDSNPREAILRHAKAAEDSPYWVSPAYSKTQPKTMFAQVESDDEEAKNEPEWKKRKI
B3: SEPT7 (protein, UniProt Q16181 2-437, looked up)
Septin-7: SVSARSAAAEERSVNSSTMVAQQKNLEGYVGFANLPNQVYRKSVKRGFEFTLMVVGESGLGKSTLINSLFLTDLYSPEYPGPSHRIKKTVQVEQSKVLIKEGGVQLLLTIVDTPGFGDAVDNSNCWQPVIDYIDSKFEDYLNAESRVNRRQMPDNRVQCCLYFIAPSGHGLKPLDIEFMKRLHEKVNIIPLIAKADTLTPEECQQFKKQIMKEIQEHKIKIYEFPETDDEEENKLVKKIKDRLPLAVVGSNTIIEVNGKRVRGRQYPWGVAEVENGEHCDFTILRNMLIRTHMQDLKDVTNNVHYENYRSRKLAAVTYNGVDNNKNKGQLTKSPLAQMEEERREHVAKMKKMEMEMEQVFEMKVKEKVQKLKDSEAELQRRHEQMKKNLEAQHKELEEKRRQFEDEKANWEAQQRILEQQNSSRTLEKNKKKGKIF
B4: RRM1 (protein, UniProt P23921 1-792, looked up)
Ribonucleoside-diphosphate …: MHVIKRDGRQERVMFDKITSRIQKLCYGLNMDFVDPAQITMKVIQGLYSGVTTVELDTLAAETAATLTTKHPDYAILAARIAVSNLHKETKKVFSDVMEDLYNYINPHNGKHSPMVAKSTLDIVLANKDRLNSAIIYDRDFSYNYFGFKTLERSYLLKINGKVAERPQHMLMRVSVGIHKEDIDAAIETYNLLSERWFTHASPTLFNAGTNRPQLSSCFLLSMKDDSIEGIYDTLKQCALISKSAGGIGVAVSCIRATGSYIAGTNGNSNGLVPMLRVYNNTARYVDQGGNKRPGAFAIYLEPWHLDIFEFLDLKKNTGKEEQRARDLFFALWIPDLFMKRVETNQDWSLMCPNECPGLDEVWGEEFEKLYASYEKQGRVRKVVKAQQLWYAIIESQTETGTPYMLYKDSCNRKSNQQNLGTIKCSNLCTEIVEYTSKDEVAVCNLASLALNMYVTSEHTYDFKKLAEVTKVVVRNLNKIIDINYYPVPEACLSNKRHRPIGIGVQGLADAFILMRYPFESAEAQLLNKQIFETIYYGALEASCDLAKEQGPYETYEGSPVSKGILQYDMWNVTPTDLWDWKVLKEKIAKYGIRNSLLIAPMPTASTAQILGNNESIEPYTSNIYTRRVLSGEFQIVNPHLLKDLTERGLWHEEMKNQIIACNGSIQSIPEIPDDLKQLYKTVWEISQKTVLKMAAERGAFIDQSQSLNIHIAEPNYGKLTSMHFYGWKQGLKTGMYYLRTRPAANPIQFTLNKEKLKDKEKVSKEEEEKERNTAAMVCSLENRDECLMCGS

Tested on: 3×MBT domain of L3MBTL1
Assay: Triple SILAC pull-down, 3xMBT/3xMBTD355N ratio (cytoplasmic, nuclear and chromatin fractions of 293T cells);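 also: proteins quantified with MaxQuant, requiring at least two unique peptides and quantification in both label directions, normalized to the mean of proteins from a digested loading control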
Format: binding, human
Conditions: SILAC ratio, pull-down 3xMBT vs 3xMBTD355N; experiment with UNC0638 in heavy SILAC media

Question: How did the “3xMBT/D355N UNC Heavy” value turn out when B1 was run?
Answer: The value was 1.15 log base 2.

Question: For B2, which “3xMBT/D355N UNC Heavy” value is on record?
Answer: Its value is 2.21 log base 2.

Question: How did the “3xMBT/D355N UNC Heavy” value turn out when B3 was run?
Answer: Its value is 2.75 log base 2.

Question: For B4, which “3xMBT/D355N UNC Heavy” value is on record?
Answer: Its value is 1.23 log base 2.

Same assay, conditions: SILAC ratio, pull-down 3xMBT vs 3xMBTD355N; experiment with UNC0638 in light SILAC media

Question: With B1 as the molecule, how does the “3xMBT/D355N UNC Light” value read?
Answer: The value was 1.40 log base 2.

Question: For B2, which “3xMBT/D355N UNC Light” value is on record?
Answer: Its value is 2.93 log base 2.

Question: B3 was tested. Which “3xMBT/D355N UNC Light” value did it give?
Answer: The value was 2.54 log base 2.

Question: How did the “3xMBT/D355N UNC Light” value turn out when B4 was run?
Answer: Its value is 0.94 log base 2.

Target: T1, G9a and GLP (Homo sapiens, UniProt Q96KQ7+Q9H9B1)
T1 sequence (Q96KQ7 2-1210 limits assumed): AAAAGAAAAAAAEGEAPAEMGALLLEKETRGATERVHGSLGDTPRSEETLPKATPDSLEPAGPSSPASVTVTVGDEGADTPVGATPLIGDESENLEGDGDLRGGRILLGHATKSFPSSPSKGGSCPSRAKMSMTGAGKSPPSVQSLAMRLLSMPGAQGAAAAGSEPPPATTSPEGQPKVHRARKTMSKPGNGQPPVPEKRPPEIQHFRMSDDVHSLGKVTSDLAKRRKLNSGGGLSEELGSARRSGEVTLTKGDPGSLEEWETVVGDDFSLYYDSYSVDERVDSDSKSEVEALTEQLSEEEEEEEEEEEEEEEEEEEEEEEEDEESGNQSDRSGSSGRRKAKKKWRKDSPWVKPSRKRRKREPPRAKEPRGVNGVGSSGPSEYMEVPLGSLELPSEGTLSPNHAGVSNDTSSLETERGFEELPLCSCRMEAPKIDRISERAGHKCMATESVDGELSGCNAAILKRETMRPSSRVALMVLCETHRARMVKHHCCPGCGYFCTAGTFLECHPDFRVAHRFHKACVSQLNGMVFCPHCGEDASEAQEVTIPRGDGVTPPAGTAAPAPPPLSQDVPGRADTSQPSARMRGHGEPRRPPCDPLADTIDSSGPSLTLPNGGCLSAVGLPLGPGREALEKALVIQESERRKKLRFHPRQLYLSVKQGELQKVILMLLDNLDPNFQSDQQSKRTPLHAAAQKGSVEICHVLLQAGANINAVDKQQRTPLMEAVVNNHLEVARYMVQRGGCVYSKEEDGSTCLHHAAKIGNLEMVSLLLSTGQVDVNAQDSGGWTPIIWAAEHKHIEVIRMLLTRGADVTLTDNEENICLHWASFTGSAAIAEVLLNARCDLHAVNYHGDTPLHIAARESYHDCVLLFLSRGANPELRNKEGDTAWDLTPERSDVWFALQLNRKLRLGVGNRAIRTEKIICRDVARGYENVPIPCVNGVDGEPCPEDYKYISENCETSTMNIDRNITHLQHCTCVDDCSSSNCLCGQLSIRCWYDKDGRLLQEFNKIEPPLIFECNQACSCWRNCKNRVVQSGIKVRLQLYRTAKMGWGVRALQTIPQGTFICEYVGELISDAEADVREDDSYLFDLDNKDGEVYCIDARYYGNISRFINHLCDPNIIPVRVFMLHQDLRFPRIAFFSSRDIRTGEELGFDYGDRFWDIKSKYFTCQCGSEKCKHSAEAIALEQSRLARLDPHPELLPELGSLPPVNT
T1 sequence (Q9H9B1 2-1298 limits assumed): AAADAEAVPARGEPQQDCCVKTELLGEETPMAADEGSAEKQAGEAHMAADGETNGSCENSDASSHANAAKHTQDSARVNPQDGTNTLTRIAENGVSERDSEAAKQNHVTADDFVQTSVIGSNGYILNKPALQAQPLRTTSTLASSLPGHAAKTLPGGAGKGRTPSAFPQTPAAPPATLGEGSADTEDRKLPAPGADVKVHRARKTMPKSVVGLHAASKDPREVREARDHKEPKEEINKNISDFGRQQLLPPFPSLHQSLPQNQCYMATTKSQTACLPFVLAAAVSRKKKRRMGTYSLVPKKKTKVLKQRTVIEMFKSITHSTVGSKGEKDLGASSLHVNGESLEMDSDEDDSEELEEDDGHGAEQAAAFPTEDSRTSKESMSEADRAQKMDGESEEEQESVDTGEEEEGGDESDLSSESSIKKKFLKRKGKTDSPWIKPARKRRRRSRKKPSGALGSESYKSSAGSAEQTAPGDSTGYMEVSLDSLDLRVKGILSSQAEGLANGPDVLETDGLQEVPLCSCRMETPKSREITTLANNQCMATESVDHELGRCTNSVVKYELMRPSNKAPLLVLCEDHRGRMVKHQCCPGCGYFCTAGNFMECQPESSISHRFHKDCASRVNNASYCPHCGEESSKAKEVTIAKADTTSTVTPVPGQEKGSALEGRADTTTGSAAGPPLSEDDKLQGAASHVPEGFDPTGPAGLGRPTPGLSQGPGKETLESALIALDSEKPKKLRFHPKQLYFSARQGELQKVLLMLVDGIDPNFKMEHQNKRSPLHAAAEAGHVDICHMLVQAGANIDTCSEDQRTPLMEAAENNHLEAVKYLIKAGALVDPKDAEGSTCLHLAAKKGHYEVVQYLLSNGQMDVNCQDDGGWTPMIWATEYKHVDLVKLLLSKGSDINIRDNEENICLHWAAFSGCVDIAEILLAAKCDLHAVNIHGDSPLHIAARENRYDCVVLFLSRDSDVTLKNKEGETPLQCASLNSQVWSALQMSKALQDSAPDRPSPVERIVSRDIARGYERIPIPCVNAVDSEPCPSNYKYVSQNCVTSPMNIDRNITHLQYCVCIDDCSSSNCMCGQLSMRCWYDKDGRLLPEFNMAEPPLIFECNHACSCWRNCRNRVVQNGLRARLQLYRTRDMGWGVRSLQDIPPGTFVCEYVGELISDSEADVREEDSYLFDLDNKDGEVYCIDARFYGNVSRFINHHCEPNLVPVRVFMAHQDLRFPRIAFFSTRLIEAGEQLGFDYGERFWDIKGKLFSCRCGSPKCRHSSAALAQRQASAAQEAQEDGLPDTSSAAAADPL
Assay: Triple SILAC pull-down after UNC0638 treatment of 293T cells, DMSO/UNC0638 ratio of protein captured by 3×MBT;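 also: mass spectrometry (Q-Exactive) SILAC quantitation, DMSO/UNC0638 ratio computed after subtracting 3×MBTD355N mutant pull-down background, only proteins with at least twofold 3×MBT over mutant signal considered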
Format: cell-based
Parameters: endogenous in cells; host or cells: HEK 293T
Conditions: SILAC ratio DMSO/UNC0638 of protein pulled down with 3xMBT; UNC0638 in heavy SILAC media

Question: With B1 as the molecule, how does the “Relative to UNC0638 UNC Heavy” value read?
Answer: Its value is 0.36 log base 2.

Question: For B2, which “Relative to UNC0638 UNC Heavy” value is on record?
Answer: The value was 0.94 log base 2.

Question: How did the “Relative to UNC0638 UNC Heavy” value turn out when B3 was run?
Answer: Its value is 0.50 log base 2.

Question: B4 was tested. Which “Relative to UNC0638 UNC Heavy” value did it give?
Answer: Its value is 0.96 log base 2.

Same assay, conditions: SILAC ratio DMSO/UNC0638 of protein pulled down with 3xMBT; UNC0638 in light SILAC media

Question: B1 was tested. Which “Relative to UNC0638 UNC Light” value did it give?
Answer: The value was 0.41 log base 2.

Question: B2 was tested. Which “Relative to UNC0638 UNC Light” value did it give?
Answer: Its value is −0.18 log base 2.

Question: Which “Relative to UNC0638 UNC Light” value does the source give for B3 here?
Answer: Its value is 0.26 log base 2.

Question: B4 was tested. Which “Relative to UNC0638 UNC Light” value did it give?
Answer: The value was −0.22 log base 2.

Same assay, conditions: average of UNC Light and UNC Heavy experiments

Question: For B1, which “Relative to UNC0638 Average” value is on record?
Answer: The value was 0.38 log base 2.

Question: B2 was tested. Which “Relative to UNC0638 Average” value did it give?
Answer: Its value is 0.38 log base 2.

Question: With B3 as the molecule, how does the “Relative to UNC0638 Average” value read?
Answer: The value was 0.38 log base 2.

Question: Which “Relative to UNC0638 Average” value does the source give for B4 here?
Answer: The value was 0.37 log base 2.

Same assay, conditions: reduced association with 3xMBT after UNC0638 treatment

Question: For B1, which “Candidate G9a/GLP target” value is on record?
Answer: Its value is “✓”.
